Data from paper PMC5626764 (Nature Communications, 2017).

T1: SHG-labeled wildtype NiV G ectodomain (Nipah virus, UniProt Q9IH62 71-602)
T1 sequence: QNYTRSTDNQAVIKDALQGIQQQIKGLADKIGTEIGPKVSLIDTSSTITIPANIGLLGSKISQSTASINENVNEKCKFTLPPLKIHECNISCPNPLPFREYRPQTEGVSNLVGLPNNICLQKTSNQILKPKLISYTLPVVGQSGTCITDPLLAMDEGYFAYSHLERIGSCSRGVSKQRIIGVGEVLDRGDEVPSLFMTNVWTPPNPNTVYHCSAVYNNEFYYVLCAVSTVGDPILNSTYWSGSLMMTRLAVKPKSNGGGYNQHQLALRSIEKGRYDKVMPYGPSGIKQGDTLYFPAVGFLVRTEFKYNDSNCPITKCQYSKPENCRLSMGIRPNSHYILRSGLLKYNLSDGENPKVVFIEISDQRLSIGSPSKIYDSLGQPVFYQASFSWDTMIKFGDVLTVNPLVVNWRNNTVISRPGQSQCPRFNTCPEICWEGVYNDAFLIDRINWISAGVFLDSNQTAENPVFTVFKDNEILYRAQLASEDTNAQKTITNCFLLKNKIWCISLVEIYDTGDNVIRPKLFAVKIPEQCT

B1: Wildtype NiV G ectodomain (Nipah virus attachment glycoprotein G, residues 71-602, N-terminal His6-tag) (domain or fragment)
chain: T1 sequence
B2: ephrinB2-229 (S-tagged monomeric ephrinB2 ectodomain, residues 25-229) (domain or fragment, human, UniProt P52799 25-229, looked up)
chain: SKSIVLEPIYWNSSNSKFLPGQGLVLYPQIGDKLDIICPKVDSKTVGQYEYYKVYMVDKDQADRCTIKKENTPLLNCAKPDQDIKFTIKFQEFSPNLWGLEFQKNKDYYIISTSNGSLEGLDNQEGGVCQTRAMKILMKVGQDASSAGSTRNKDPTRRPELEAGTNGRSSTTSPFVKPNPGSSTDGNSAGHSGNNILGSEVALFA
B3: Stag-ephrinB2-167 (S-tagged monomeric ephrinB2 globular domain, residues 25-167) (domain or fragment, human, UniProt P52799 25-167, looked up)
chain: SKSIVLEPIYWNSSNSKFLPGQGLVLYPQIGDKLDIICPKVDSKTVGQYEYYKVYMVDKDQADRCTIKKENTPLLNCAKPDQDIKFTIKFQEFSPNLWGLEFQKNKDYYIISTSNGSLEGLDNQEGGVCQTRAMKILMKVGQD
B4: ephrinB2-167 from His6-ephrinB2-167 with the His6-tag removed by enterokinase cleavage (domain or fragment, human, UniProt P52799 25-167, looked up)
chain: B3 chain
notes: also called monomeric ephrinB2
B5: ephrinB2-Fc (human ephrinB2 residues 1-229, Factor XA cleavage site, human IgG1 residues 100-330) (Fc fusion)
chain: IVLEPIYWNSSNSKFLPGQGLVLYPQIGDKLDIICPKVDSKTVGQYEYYKVYMVDKDQADRCTIKKENTPLLNCAKPDQDIKFTIKFQEFSPNLWGLEFQKNKDYYIISTSNGSLEGLDNQEGGVCQTRAMKILMKVGQDASSAGSTRNKDPTRRPELEAGTNGRSSTTSPFVKPNPGSSTDGNSAGHSGNNILGSEVALFA
notes: also called dimeric ephrinB2; dimeric receptor

Columns and labels:
[1] = biological target: the molecule itself; experiment: negative stain electron microscopy
[2] = biological target: B1; experiment: ELISA; details: both partners purified
[3] = biological target: T1, SHG-labeled wildtype NiV G ectodomain; experiment: second harmonic generation (SHG); details: both partners purified

B1
stoichiometry N [1]: 4

B2
Kd [2]: 33.2 nM

B3
Kd [2]: 11.9 nM

B4
ΔSHG [3]: -27.9%

B5
ΔSHG [3]: -12.9% | Kd [2]: 0.088 nM
